In paper PMC9856709 (Cancers, 2023):
Entries after “also recorded” stand apart in the source; their conditions may differ. Like-named read-outs stand apart in the source and are kept apart here. Numbered stars: 1 amine (or outer) side, 2 acyl side, 3 side chain; on linkers, the order of the positions; unused ones are H or OH. Square brackets hold non-standard residues; d marks the D form. Peptide text beside a SMILES is read from it. * marks the point of attachment. NOTA = O=C(O)CN1CCN(CC(=O)O)CCN(CC(=O)*)CC1; γGlu = O=C(O)[C@H](CCC(=O)[*:2])N[*:1]; Sta = CC(C)C[C@H](N)[C@@H](O)CC(=O)O; AEEA = NCCOCCOCC(=O)O; Aoc = NCCCCCCCC(=O)O; CO = O=C([*:1])[*:2]

Experiments:
[1] = system: PSMA and GRPR; experiment: In vivo binding specificity (blocked groups) in PC3-pip xenografted mice; parameters: species or system BALB/c nu/nu mice; conditions: 1 h pi
Description: (§1) Ex vivo experiments and in vivo imaging were carried out using BALB/c nu/nu mice bearing PC3-pip xenografts. All studies were performed according to the guidelines of the Declaration of Helsinki and approved by the Ethics Committee for Animal Research in Uppsala, Sweden (5.8.18-00473/2021. Approved on 26 February 2021).
(§2) There were 4 mice in each group. At 1 and 3 h pi, mice were sacrificed after an intraperitoneal injection of a Ketalar–Rompun solution (20 μL/g body weight) consisting of Ketalar (10 mg/mL) and Rompun (1 mg/mL), followed by heart puncture.

[2] = as above; parameters: species or system BALB/c nu/nu mice; conditions: BALB/c nu/nu, mouse, iv, total radioactivity, 1 h pi, 40 pmol iv, average ± SD
Description: as §1, §2

[3] = system: PC3-pip cell line; experiment: Cellular processing in PC3-pip cells; assay type: cell-based, human; conditions: 1 nM, 37 °C
Description: (§3) In vitro experiments were carried out using the PSMA- and GRPR-expressing human prostate carcinoma PC3-pip cell line (obtained from Prof. Martin Pomper, The Johns Hopkins University, Baltimore, MD, USA). Cells (5–7 × 10^5 cells/vial) were seeded 24–48 h before the experiments. All experiments were performed in triplicate.
At selected time points (1 and 3 h), cells were collected, and the total cell-associated activity was measured using an automated gamma counter. At 3 h, the membrane-bound and internalised fractions were collected separately using the acid and base method described earlier.

[4] = system: PSMA and GRPR; experiment: In vitro binding specificity (blocking) in PC3-pip cells; assay type: cell-based, human; conditions: 1 h 37 °C
Description: as §3
To block the targets, cells were incubated at room temperature for 15 min with an excess (750 nM/well) of PSMA-11 (to block PSMA) and/or NOTA-PEG2-RM26 (to block GRPR). […] After 1 h, cells were collected, and the radioactive content was measured using an automated gamma counter.

[5] = 37 °C, 1 h, ITLC
Description: After 1 h, samples were taken from all solutions and analysed by ITLC.

[6] = Stability in PBS and EDTA challenge; assay type: physicochemical; conditions: 1 h, ITLC
[7] = system: PC3-pip xenografts; experiment: nanoScan PET/CT imaging of PC3-pip xenografted mice; assay type: in vivo, BALB/c nu/nu mice; conditions: 100 pmol, 8 MBq, n = 2
Description: Immediately after the PET scan, a CT scan was performed using a nanoScan SPECT/CT camera (Mediso Medical Imaging System Ltd., Budapest, Hungary) with the same bed. […] Imaging of the non-blocked (n = 2) and the PSMA/GRPR-blocked (n = 2) groups was performed at 1 and 3 h pi. Reconstruction of the PET/CT scans was conducted using Nucline nanoScan 3.04.014.0000 software.

[8] = system: Wistar rats; experiment: Acute and subacute toxicity in rats; assay type: in vivo
Description: The animals were kept in a barrier-type animal facility under standard housing conditions. […] The dose of heterodimer for toxicological studies was calculated based on cross-species dose conversion using body surface area scaling: the maximum dose for the clinical study was chosen to be 300 µg of heterodimer per 75 kg patient, or […], which corresponds to [(4 µg × 427 g)/1000 g] × 6 = 10.3 µg per rat. Ten rats from each group were euthanized at 24 h pi and five rats at 28 days pi. The body weight of the rats was controlled at baseline, at 24 h after administration for the acute toxicity group, and every second day for the subacute toxicity group. Biochemical blood tests on alanine aminotransferase, albumin, aspartate aminotransferase, bilirubin, glucose, creatinine, urea, the total amount of proteins, cholesterol, and ALT were performed before the euthanasia. Necropsy of the experimental rats was performed, and the weights of the brain, heart, lungs, liver, adrenal glands, kidneys, spleen, testes, and thymus were measured.

[9] = Excerpt: The average animal weight was 27.4 ± 1.6 g and OLINDA/EXM 1.0 software (adult male phantom) was used to estimate the absorbed doses.
The well-established “percent kg/g method” using Equation (1) was used to upscale the uptake values in mice to be able to evaluate the dosimetry in humans. The organ weights of the reference adult male were used to calculate the organ uptake in humans and the area under the curve of exponential fits for human time–activity curves was used to calculate the residence times. (%IA/organ)human = [(%IA/g)animal × (kBqTBweight)animal × (gorgan/(kBqTBweight)human](1)

[10] = 3 h, acid and base method, triplicate
[11] = estimated for adult male from mouse ex vivo data, percent kg/g method, OLINDA/EXM 1.0

## CC(C)C[C@H](NC(=O)C[C@H](O)[C@H](CC(C)C)NC(=O)[C@H](Cc1c[nH]cn1)NC(=O)CNC(=O)[C@@H](NC(=O)[C@H](C)NC(=O)[C@H](Cc1c[nH]c2ccccc12)NC(=O)[C@H](CCC(N)=O)NC(=O)[C@@H](Cc1ccccc1)NC(=O)COCCOCCNC(=O)[C@H](CCCCNC(=O)CN1CCN(CC(=O)O)CCN(CC(=O)O)CC1)NC(=O)[C@H](Cc1ccccc1)NC(=O)CCCCCCCNC(=O)CC[C@H](NC(=O)N[C@@H](CCC(=O)O)C(=O)O)C(=O)O)C(C)C)C(N)=O [[^68Ga]Ga-BQ7812, metal not drawn] ({Glu-CO-γGlu-Aoc}-FK(NOTA)[AEEA][dF]QWAVGH[Sta]L-NH2)
[1]; co-injected NOTA-PEG2-RM26 5 nmol
  Uptake in tumour and pancreas, GRPR-blocked group compared with non-blocked group: statistically significantly lower
[1]; co-injected PSMA-11 5 nmol
  Uptake in tumour and kidneys, PSMA-blocked group compared with non-blocked group: statistically significantly lower
[2]; blood, GRPR blocked (co-injected NOTA-PEG2-RM26 5 nmol), read-out: Uptake (%IA/g), Blood
  tissue uptake at 1 h: 0.69 ± 0.28 %ID/g
[2]; blood, PSMA blocked (co-injected PSMA-11 5 nmol), read-out: Uptake (%IA/g), Blood
  tissue uptake at 1 h: 0.8 ± 0.24 %ID/g
[2]; kidneys, GRPR blocked (co-injected NOTA-PEG2-RM26 5 nmol), read-out: Uptake (%IA/g), Kidneys
  tissue uptake at 1 h: 34.5 ± 8.74 %ID/g
[2]; kidneys, PSMA blocked (co-injected PSMA-11 5 nmol), read-out: Uptake (%IA/g), Kidneys
  tissue uptake at 1 h: 13.8 ± 0.45 %ID/g
[2]; pancreas, GRPR blocked (co-injected NOTA-PEG2-RM26 5 nmol), read-out: Uptake (%IA/g), Pancreas
  tissue uptake at 1 h: 0.76 ± 0.14 %ID/g
[2]; pancreas, PSMA blocked (co-injected PSMA-11 5 nmol), read-out: Uptake (%IA/g), Pancreas
  tissue uptake at 1 h: 6.33 ± 1.86 %ID/g
[2]; salivary glands, GRPR blocked (co-injected NOTA-PEG2-RM26 5 nmol), read-out: Uptake (%IA/g), Salivary Glands
  tissue uptake at 1 h: 0.29 ± 0.07 %ID/g
[2]; salivary glands, PSMA blocked (co-injected PSMA-11 5 nmol), read-out: Uptake (%IA/g), Salivary Glands
  tissue uptake at 1 h: 0.38 ± 0.12 %ID/g
[2]; tumour (PC3-pip xenograft), GRPR blocked (co-injected NOTA-PEG2-RM26 5 nmol), read-out: Uptake (%IA/g), Tumour (PC3-pip)
  tissue uptake at 1 h: 5.73 ± 0.72 %ID/g
[2]; tumour (PC3-pip xenograft), PSMA blocked (co-injected PSMA-11 5 nmol), read-out: Uptake (%IA/g), Tumour (PC3-pip)
  tissue uptake at 1 h: 8.26 ± 1.03 %ID/g
[3]; 1 and 3 h
  Binding to the targets in cellular processing: rapid binding
[3]; [10]
  Internalised fraction of total cell-associated activity: approximately 20%
  Membrane-bound fraction of total cell-associated activity: ~80%
[4]; 20 nM tracer
  Uptake in cells pre-saturated with both blocking agents compared to either one: significantly lower
[4]; excess NOTA-PEG2-RM26, 20 nM tracer, triplicate, p < 0.05
  Activity uptake after pre-saturation of GRPR compared to naive cells: significant decrease
[4]; excess PSMA-11, 20 nM tracer, triplicate, p < 0.05
  Activity uptake after pre-saturation of PSMA compared to naive cells: significant decrease
[4]; excess PSMA-11 and NOTA-PEG2-RM26, 20 nM tracer, triplicate, p < 0.05
  Activity uptake after pre-saturation of PSMA and GRPR compared to naive cells: significant decrease
[5]
  Release of free gallium-68 in human serum: no release of free gallium-68 was detected
  Stability in human serum: stable
[6]; 1000-fold molar excess EDTA
  Release of free gallium-68 under EDTA challenge: minor release
[6]; PBS, room temperature
  Release of free gallium-68 in PBS: minor release
[7]; 1 and 3 h pi
  PET/CT visualisation, non-blocked: elevated activity uptake could be visualised in the kidneys and the tumour
[7]; co-injected NOTA-PEG2-RM26 and PSMA-11 (5 nmol each)
  PET/CT visualisation of tumour upon blocking of PSMA and GRPR: the tumour is no longer visualised
[8]; single iv bolus 10.3 μg (10 MBq for labelled), 24 h and 28 days pi, vs control groups
  Clinical or biochemical parameters in toxicological studies: no changes
[8]; single iv bolus 10.3 μg, acute (24 h) and subacute (28 days)
  Toxicity conclusion: absence of toxicity; also recorded: safe toxicological profile
[9]; after injection of 200–300 MBq, from estimated effective dose
  Total dose per scan: 1.66–2.49 mSv
[9]; estimated for adult male from mouse ex vivo data
  Absorbed doses in the remaining organs and tissues (other than kidneys, heart wall, lower large intestine wall): below 0.02 mSv/MBq
[9]; [11]
  Absorbed Dose, Adrenals: 0.0043 mGy/MBq
  Absorbed Dose, Brain: 0.0007 mGy/MBq
  Absorbed Dose, Breasts: 0.0030 mGy/MBq
  Absorbed Dose, Gallbladder wall: 0.0042 mGy/MBq
  Absorbed Dose, Heart wall: 0.0265 mGy/MBq
  Absorbed Dose, Kidneys: 0.0660 mGy/MBq
  Absorbed Dose, Liver: 0.0044 mGy/MBq
  Absorbed Dose, Lower large intestine wall: 0.0250 mGy/MBq
  Absorbed Dose, Lungs: 0.0041 mGy/MBq
  Absorbed Dose, Muscle: 0.0024 mGy/MBq
  Absorbed Dose, Osteogenic cells: 0.0080 mGy/MBq
  Absorbed Dose, Ovaries: 0.0045 mGy/MBq
  Absorbed Dose, Pancreas: 0.0186 mGy/MBq
  Absorbed Dose, Red marrow: 0.0057 mGy/MBq
  Absorbed Dose, Skin: 0.0026 mGy/MBq
  Absorbed Dose, Small intestine wall: 0.0199 mGy/MBq
  Absorbed Dose, Spleen: 0.0033 mGy/MBq
  Absorbed Dose, Stomach wall: 0.0048 mGy/MBq
  Absorbed Dose, Testes: 0.0030 mGy/MBq
  Absorbed Dose, Thymus: 0.0038 mGy/MBq
  Absorbed Dose, Thyroid: 0.0030 mGy/MBq
  Absorbed Dose, Total body: 0.0044 mGy/MBq
  Absorbed Dose, Upper large intestines LI wall: 0.0111 mGy/MBq
  Absorbed Dose, Urinary bladder wall: 0.0036 mGy/MBq
  Absorbed Dose, Uterus: 0.0042 mGy/MBq
  Effective dose: 0.0083 mSv/MBq
  Effective dose equivalent: 0.0124 mSv/MBq
